In publication PMC3698177:

Target: phosphorylated β-catenin (UniProt P35222)
Assay: co-immunoprecipitation (IP-GFP), western blot densitometry
Conditions: Triton-X100 cell extracts containing 50 mM NaF; SW480 extract as source of β-catenin; parent: 1

UniProt P35222, sequence (P35222 whole entry): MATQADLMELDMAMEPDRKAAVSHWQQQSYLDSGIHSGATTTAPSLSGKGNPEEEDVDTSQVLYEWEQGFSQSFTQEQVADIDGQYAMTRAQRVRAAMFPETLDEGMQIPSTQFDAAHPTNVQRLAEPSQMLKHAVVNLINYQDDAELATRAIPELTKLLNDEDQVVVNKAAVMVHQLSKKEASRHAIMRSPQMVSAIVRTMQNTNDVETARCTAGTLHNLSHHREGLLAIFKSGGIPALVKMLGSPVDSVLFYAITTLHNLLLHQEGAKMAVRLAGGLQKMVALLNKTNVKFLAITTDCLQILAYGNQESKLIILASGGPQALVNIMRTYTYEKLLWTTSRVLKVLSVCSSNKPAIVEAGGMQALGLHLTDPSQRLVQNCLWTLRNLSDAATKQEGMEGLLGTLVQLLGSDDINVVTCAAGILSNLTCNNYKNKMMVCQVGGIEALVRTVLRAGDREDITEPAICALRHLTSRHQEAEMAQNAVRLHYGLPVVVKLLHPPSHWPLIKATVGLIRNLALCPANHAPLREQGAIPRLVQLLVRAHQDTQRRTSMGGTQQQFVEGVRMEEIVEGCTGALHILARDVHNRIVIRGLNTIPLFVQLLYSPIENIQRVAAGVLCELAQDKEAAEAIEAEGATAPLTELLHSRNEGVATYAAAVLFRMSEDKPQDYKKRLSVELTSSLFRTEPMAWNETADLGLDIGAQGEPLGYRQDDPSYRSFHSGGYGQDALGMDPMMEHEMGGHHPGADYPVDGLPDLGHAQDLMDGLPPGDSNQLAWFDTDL

**Q.** With yAPC1289 (from UniProt P25054) 20R1µ as the substance, how does the other: Ratio Phospho/total read?
**A.** 0.9
